This is an account of results in the DeepSol protein solubility set.

The data set is described as follows: soluble on expression in E. coli; label from the status in PepcDB or PDB records.
As for “MSLDDLAQLANEVKASFVRLVNEDANSHMIGTAMSTIGRAFTQRIIELVEAELGAAPLPYCFVAFGSMGRDEQLIVTDQDNALILDDRYDVQQHGAYFAQFAELVCRGLDRCGYPLCDGEIMASNPKWRMTRKEWETCFADWIDNPNPQALLNASIFFDLDGVYGRTKWAEQLSGFIVRRARRNQRFLACLARNALNRTPPLGFFKNFVMEKDGRHNNSINLKRRGTAPLADLIRVHALAAGSRAKNSFERLDDVIEAGLLPQGKGKDLRDALEFIAMVRIRHQAIDVEQEGHHHHHH”, the “soluble on expression in E. coli” value is listed as “not soluble”.
As to “MSNHQVALQFEDGVTRFICIAQGETLSDAAYRQQINIPMDCREGECGTCRAFCESGNYDMPEDNYIEDALTPEEAQQGYVLACQCRPTSDAVFQIQASSEVCKTKIHHFEGTLARVENLSDSTITFDIQLDDGQPDIHFLAGQYVNVTLPGTTETRSYSFSSQPGNRLTGFVVRNVPQGKMSEYLSVQAKAGDKMSFTGPFGSFYLRDVKRPVLMLAGGTGIAPFLSMLQVLEQKGSEHPVRLVFGVTQDCDLVALEQLDALQQKLPWFEYRTVVAHAESQHERKGYVTGHIEYDWLNGGEVDVYLCGPVPMVEAVRSWLDTQGIQPANFLFEKFSAN”, the “soluble on expression in E. coli” value is “soluble”.
To “MGSDKIHHHHHHMLEMKATGKSKGQWMFYRNFDDTVDYLSDHTRILSYNPFCHKVEPLDRDEAYRWHFRVTDPQNNPFDVIFNIQQETEILVDLPDEVASMDPEEMSDEMIRQFTVGRKITWRPLAQDKTFTMPEKYLFEGQVTADMLIVPVQQEQTRVDFDLWVNVAFLLYPAFRIVPEKVVRTMVSTGMSLIMQTATNHMFQKISKEFGKIRKL” belongs “not soluble”.
Take “MGSDKIHHHHHHMIHFSINKNLFLQALNTTKRAISSKNAIPILSTVKIDVTNEGITLIGSNGQISIENFISQKNEDAGLLITSLGSILLEASFFINVVSSLPDVTLDFKEIEQNQIVLTSGKSEITLKGKDSEQYPRIQEISASTPLILETKLLKKIINETAFAASTQESRPILTGVHFVLSQHKELKTVATDSHRLSQKKLTLEKNSDDFDVVIPSRSLREFSAVFTDDIETVEIFFANNQILFRSENISFYTRLLEGNYPDTDRLIPTDFNTTITFNVVNLRQSMERARLLSSATQNGTVKLEIKDGVVSAHVHSPEVGKVNEEIDTDQVTGEDLTISFNPTYLIDSLKALNSEKVTISFISAVRPFTLVPADTDEDFMQLITPVRTN”: the “soluble on expression in E. coli” value is reported as “soluble”.
To “MAKATYACVECGYRTPKPLGRCPSCGSWESFQEVAPAPASRRAKPSPLPLLALSQVDEAEERRFSSGLSEVDRVLGGGFVTGEVVLLGGEPGVGKSTLLLEMAKRMPQRVYYVAGEESPAQIKLRAQRLGVKDLLLVRETRLEPLLALLEEDPPEVLFVDSVQTLEAGGSPGSLVAVREATSALVRFAKESGAAVVLVGHVTKEGVVAGPKSVEHAVDATLYLETAGPYRVLRSAKNRFGPVGEIGVFRMEEAGLLEVENPSEAFLKERPLGVPGSAVALALAGERALALEVQALAAKTPFPAPRRVVQGLDSRRVDVVLAVLERRLGLPLANLDIYVNLAGGLKVQDPGLDLAVALAVYSAVVGRPLPADLALVGEVGLAGEVRRVAGLERRLREGERAGFGRFLHPGNLKRLQEAVEAYLALEHHHHHH” belongs “not soluble”; to “MSLRRSLLLVDDDADHLAVLRCTLESCGFDVSLAPDGAAALALAHARAFDAVVLDIAMPGLSGWEVAERLRAAHGQSFRLVMLSANAEERHGPRGKEPDHDLFLMKPVELSALVDSLGKLLGLEWILSEGGGDTVLAQPRIDVSDSARTHVDRLKSLARIGHLRGLEAEIRSMQETDTGTAPLAARLFDCLDRCDLVAMRRVLEGIEGHHHHHH”, “not soluble”; to “MGSSHHHHHHSSGLVPRGSHMAADNRVQMRTTINNESPLLLSPLYGNDNGNGLWWGNTLKGAWEAIPEDVKPYAAIELHPAKVCKPTSCIPRDTKELREWYVKMLEEAQSLNIPVFLVIMSAGERNTVPPEWLDEQFQKYSVLKGVLNIANYWIYNNQLAPHSAKYLEVCAKYGAHFIWHDHEKWFWETIMNDPTFFEASQKYHKNLVLATKNTPIRDDAGTDSIVSGFWLSGLCDNWGSSTDTWKWWEKHYTNTFETGRARDMRSYASEPESMIAMEMMNVYTGGGTVYNFECAAYTFMTNDVPTPAFTKGIIPFFRHAIQNPAPSKEEVVNRTKAVFWNGEGRISSLNGFYQGLYSNDETMPLYNNGRYHILPVIHEKIDKEKISSIFPNAKILTKNSEELSSKVNYLNSLYPKLYEGDGYAQRVGNSWYIYNSNANINKNQQVMLPMYTNNTKSLSLDLTPHTYAVVKENPNNLHILLNNYRTDKTAMWALSGNFDASKSWKKEELELANWISKNYSINPVDNDFRTTTLTLKGHTGHKPQINISGDKNHYTYTENWDENTHVYTITVNHNGMVEMKI”, “soluble”.
